Measured values as given in paper doi:10.1101/2022.05.21.492554 (2022).

Tests used:
[1] = molecular target: T1, BA.4/5 RBD with BAP-His tag, biotinylated (SARS-CoV-2 Omicron BA.4/5, L452R | F486V | T478K | E484A | N501Y, biotin (on the BAP tag, by co-expressed ER-localized biotin ligase BirA)); test: SPR; conditions: both partners purified
[2] = molecular target: T1, BA.4/5 RBD with BAP-His tag, …; test: cell-based or functional assay

B1: Omi-32 Fab (Fab, V domains shown)
VH: EVQLVESGGGVVQPGRSLRLSCAASGFTFSNYGMHWVRQAPGKGLEWVAVYWYDGGNKFYADSVKGRFTISRDNSKNTLYLQMNSLRVEDTAVYYCARDTAPPDYWGQGTLVTVSS
VL: AIRMTQSPGTLSLSPGERATLSCRASQSISSSFLAWYQQKPGQAPRLLIYGASSRATGIPDRFSGSGSGTDFTLTISRLEPEDFAVYYCQQYGTSPRLTFGGGTKVDIK
Question: With B1 as the binder, how does the “fold increase in on-rate against BA.2 RBD” value [1] read?
Answer: Its value is 5 fold.

Question: What about the “pseudoviral neutralization of BA.4/5, fold enhancement compared to BA.2” value [2] of the same binder?
Answer: Its value is 77 fold.
